Results as given in article PMC6802930.
Each block holds one substance with its values, some of them ahead of it.

Assays:
[1] = target: ^HAβ3 (rat GABAA receptor β3 subunit with a triple HA tag) (rat) (UniProt P63079)
[2] = target: ^HAβ3 (rat GABAA receptor β3 subunit with a triple HA tag) (rat) (UniProt P63079); remark: listed apart in the source
[3] = target: ^HAβ3/θIC chimera (EC and TM domains from β3, intracellular domain from θ) (rat)
[4] = target: ^HAβ3 (rat GABAA receptor β3 subunit with a triple HA tag) (rat) (UniProt P63079); remark: listed apart in the source
[5] = target: ^HAβ3/θIC chimera (EC and TM domains from β3, intracellular domain from θ) (rat); remark: listed apart in the source
[6] = target: ^HAβ3/θIC chimera (EC and TM domains from β3, intracellular domain from θ) (rat); remark: listed apart in the source

peak whole-cell current evoked by 3 mM histamine, HEK293 cells transfected with ^HAβ3 alone (patch clamp, -80 mV) [1]: 404 pA
Substance: ^HAβ3 (rat GABAA receptor β3 subunit with a triple HA tag) (from UniProt P63079 26-473)

share of the low-affinity component in the bimodal histamine concentration-response curve (10 μM to 10 mM), whole-cell patch clamp, HEK293 cells co-transfected with ^zβ3Q64E and ^HAβ3 (% of the total curve fit) [2]: 85
Substance: ^zβ3Q64E (mutant β3 subunit with higher affinity for histamine) (from UniProt P63079 26-473) (receptor)

Substance: rat GABAA receptor α3 subunit (untagged) (from UniProt P20236 29-493)
anti-HA surface immunofluorescence intensity of non-permeabilized HEK293 cells co-transfected with α3 and ^HAβ3/θIC (the chimera alone is rarely on the surface) [3]: 14 AU | histamine (3 mM) potentiation of the response to 1 mM GABA, whole-cell patch clamp, HEK293 cells co-transfected with α3 and ^HAβ3 [4]: 2.93 fold | peak whole-cell current evoked by 1 mM GABA, HEK293 cells co-transfected with α3 and ^HAβ3/θIC (patch clamp) [5]: 803 pA

anti-HA surface immunofluorescence intensity of non-permeabilized HEK293 cells co-transfected with untagged β3 and ^HAβ3/θIC (the chimera alone is rarely on the surface) [6]: 9.9 AU
Substance: rat GABAA receptor β3 subunit (untagged) (from UniProt P63079 26-473)
